Key:
[1] = molecular target: T1, HIF-1 (HIF-1alpha/HIF-1beta ARNT heterodimer) (Homo sapiens, UniProt Q16665;P27540 Q16665:1-826,P27540:2-789); assay: EMSA; buffer Z-100; also UV cross-linking of both subunits, competed by W18 not M18; details: tags: none; 5' GATC overhang
Procedure: (§1) Figure 3A: FIG. 3A is an autoradiograph showing gel shift assay analysis of column fractions for HIF-1 DNA binding activity. Nuclear extracts were fractionated by DEAE-Sepharose chromatography, and fractions containing HIF-1 activity were applied to a W18 DNA affinity column. 5 ug of protein were incubated with 0.1 ug of calf thymus DNA for gel shift analysis of crude nuclear extract (Crude NE, lane 1) and HIF-1 active fractions from DEAE-Sepharose columns (DEAE, lane 2). For fractions from the W18 column (lanes 3–13), 1 ul aliquots were incubated with 5 ng of calf thymus DNA. The positions of the two HIF-1 bands, constitutive activity (C), nonspecific activity (NS), and free probe (F) are indicated. FT, flowthrough, 0.25M, 0.5M, 1M, and 2M are fractions eluted with indicated concentration of KCl in buffer Z. Figure 3B: FIG. 3B is an autoradiograph showing sequence-specific DNA binding of the partially purified fractions described in the legend to FIG. 3A. 5 ug aliquots of fractions from the DEAE-Sepharose column were incubated with W18 probe in the presence of no competitor (lane 1), 10-fold (lanes 2 and 5), 50-fold (lanes 3 and 6), or 250-fold (lanes 4 and 7) molar excess of unlabeled W18 (W, lanes 2–4) or M18 (M, lanes 5–7) oligonucleotide.
UV Cross-Linking Analysis. […]

[2] = molecular target: T1, HIF-1 (HIF-1alpha/HIF-1beta ARNT …); assay: competition; 250-fold excess M18 does not compete; HIF-1 in M18 column flowthrough; details: tags: none; 5' GATC overhang
Procedure: as §1

[3] = molecular target: T1, HIF-1 (HIF-1alpha/HIF-1beta ARNT …); assay: EMSA; listed among 8 oligonucleotides shown to bind HIF-1 specifically; details: tags: none; 5' GATC overhang added
Source text: (§2) Double-stranded oligonucleotides were synthesized according to the sequences shown in Table 2 except that each oligonucleotide contained at its 5'-end the sequence 5'-GATC-3', which formed a single-stranded 5' overhang when complementary oligonucleotides were annealed. The sense strand sequence of the W18 and M18 oligonucleotides was as given above. HIF-1 was partially purified from 50 liters of CoCl_2-treated HeLa cells by crude nuclear extract preparation, DEAE-Sepharose chromatography, MonoQ fast protein liquid chromatography, and DNA affinity chromatography. Incubations with crude nuclear extracts and partially purified HIF-I contained 100 and 1 ng of denatured calf thymus DNA, respectively. Competition experiments were performed with 5 ng of unlabeled W18 or MI8 oligonucleotide.
(§3) EMSA was also performed with a preparation of HIF-1 from CoCl_2-treated HeLa cells that was purified approximately 600-fold by DEAE-cellulose, MonoQ, and DNA affinity chromatography. Each probe bound HIF-1 in a manner that was qualitatively and quantitatively similar to the complex formed with W18. The binding of HIF-1 to these probes was sequence-specific as it could be competed by an excess of unlabeled W18 but not by mutant oligonucleotide M18, containing a 3-nucleotide substitution previously shown to eliminate HIF-1 binding and hypoxia-inducible enhancer function. […]

[4] = molecular target: T1, HIF-1 (HIF-1alpha/HIF-1beta ARNT …); assay: EMSA; similar to W18; competed by W18 not M18; details: tags: none; 5' GATC overhang added
Procedure: as §2, with “The” for “Double-stranded oligonucleotides were synthesized according to the sequences shown in Table 2 except that each oligonucleotide contained at its 5'-end the sequence 5'-GATC-3', which formed a single-stranded 5' overhang when complementary oligonucleotides were annealed. The”
EMSA was also performed with a preparation of HIF-1 from CoCl_2-treated HeLa cells that was purified approximately 600-fold by DEAE-cellulose, MonoQ, and DNA affinity chromatography. Each probe bound HIF-1 in a manner that was qualitatively and quantitatively similar to the complex formed with W18. The binding of HIF-1 to these probes was sequence-specific as it could be competed by an excess of unlabeled W18 but not by mutant oligonucleotide M18, containing a 3-nucleotide substitution previously shown to eliminate HIF-1 binding and hypoxia-inducible enhancer function. Similar results were obtained when competition experiments involving W18 and M18 were performed with crude nuclear extract from hypoxic Hep3B cells. […] Given the biased method of ascertainment, it is possible that HIF-1 may recognize other sequences not represented by this consensus. In addition to the 6 HIF-1 sites from glycolytic genes, the sequence 5'-CACGTGCT-3' (SEQ ID NO:34) was also present in the hENO1 5'-FS at -786 to -793 (Gialongo et al. (1990) Eur. J. Biochem. 190:567–573) but was not tested for HIF-1 binding. Thus, a total of 7 probable HIF-1 sites were identified in 20.7 kb of nucleotide sequence reported to GenBank for these 5 glycolytic genes. In contrast, no sequences matching the consensus HIF-1 site were identified on either DNA strand within a total of 43.5 kb, comprising the nucleotide sequences of 5 randomly chosen genes, AFP, BUP4, CREB, DHFR, and EPOR (Gibbs et al. (1987) Biochemistry 26;1332–1343; Kurihara et al. (1993) Biochem.

[5] = molecular target: T1, HIF-1 (HIF-1alpha/HIF-1beta ARNT …); assay: EMSA; similar to W18; competed by W18 not M18; printed CADGTGCG in table; details: tags: none; 5' GATC overhang added
Source text: as §2, §3

T1 sequence (Q16665 whole entry, chain 1 of 2): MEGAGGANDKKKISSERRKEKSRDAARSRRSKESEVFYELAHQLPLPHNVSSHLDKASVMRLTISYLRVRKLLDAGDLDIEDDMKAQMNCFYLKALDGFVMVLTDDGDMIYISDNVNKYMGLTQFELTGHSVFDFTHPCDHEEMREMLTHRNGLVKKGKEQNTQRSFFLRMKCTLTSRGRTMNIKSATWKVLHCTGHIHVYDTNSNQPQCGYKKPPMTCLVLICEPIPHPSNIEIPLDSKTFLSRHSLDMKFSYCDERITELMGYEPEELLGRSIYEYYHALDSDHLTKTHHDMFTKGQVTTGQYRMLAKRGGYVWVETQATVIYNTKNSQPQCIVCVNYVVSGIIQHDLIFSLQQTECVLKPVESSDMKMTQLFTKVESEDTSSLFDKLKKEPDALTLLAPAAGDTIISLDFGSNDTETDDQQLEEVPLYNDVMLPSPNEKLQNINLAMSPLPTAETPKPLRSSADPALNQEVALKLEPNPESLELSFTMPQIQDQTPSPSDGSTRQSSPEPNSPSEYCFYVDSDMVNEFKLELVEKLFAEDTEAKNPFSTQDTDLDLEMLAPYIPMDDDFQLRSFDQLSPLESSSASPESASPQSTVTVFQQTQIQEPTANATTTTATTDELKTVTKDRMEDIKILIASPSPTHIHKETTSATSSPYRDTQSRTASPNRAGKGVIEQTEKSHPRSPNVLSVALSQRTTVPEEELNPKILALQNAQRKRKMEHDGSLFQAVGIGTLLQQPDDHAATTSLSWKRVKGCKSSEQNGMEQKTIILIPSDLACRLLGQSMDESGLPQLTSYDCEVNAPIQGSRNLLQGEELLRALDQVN
T1 sequence (P27540 2-789, chain 2 of 2): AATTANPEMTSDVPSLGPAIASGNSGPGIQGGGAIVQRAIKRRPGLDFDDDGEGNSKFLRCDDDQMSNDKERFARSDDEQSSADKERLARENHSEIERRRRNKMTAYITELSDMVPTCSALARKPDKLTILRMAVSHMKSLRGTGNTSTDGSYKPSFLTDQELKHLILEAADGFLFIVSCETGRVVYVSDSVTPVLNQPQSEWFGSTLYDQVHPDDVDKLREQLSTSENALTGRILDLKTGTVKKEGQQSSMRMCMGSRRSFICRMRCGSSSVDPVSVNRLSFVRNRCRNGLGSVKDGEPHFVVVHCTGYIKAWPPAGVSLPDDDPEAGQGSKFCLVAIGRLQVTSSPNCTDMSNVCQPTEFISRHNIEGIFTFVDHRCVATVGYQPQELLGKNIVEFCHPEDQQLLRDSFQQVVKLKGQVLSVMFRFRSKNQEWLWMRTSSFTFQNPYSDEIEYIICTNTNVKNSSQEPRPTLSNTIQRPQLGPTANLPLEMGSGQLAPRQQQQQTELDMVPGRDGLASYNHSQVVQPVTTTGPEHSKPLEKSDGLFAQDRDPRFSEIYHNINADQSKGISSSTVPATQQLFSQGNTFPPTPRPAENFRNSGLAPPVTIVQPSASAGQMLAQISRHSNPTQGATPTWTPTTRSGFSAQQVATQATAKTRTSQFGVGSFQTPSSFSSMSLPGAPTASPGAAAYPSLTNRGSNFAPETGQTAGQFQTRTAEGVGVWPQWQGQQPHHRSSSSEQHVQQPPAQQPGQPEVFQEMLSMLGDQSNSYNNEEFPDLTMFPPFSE

Binder	binding result [4]	other results
W18 (dsDNA) DNA 1: GATCGCCCTACGTGCTGTCTCA DNA 2: TGAGACAGCACGTAGGGCGATC		binding result [1]: binds
M18 (dsDNA) DNA 1: GATCGCCCTAAAAGCTGTCTCA DNA 2: TGAGACAGCTTTTAGGGCGATC		binding result [2]: no binding
hEPO 3'-FS (dsDNA) DNA 1: GCCCTACGTGCTGTCTCACACAGCCTGTCTGA DNA 2: TCAGACAGGCTGTGTGAGACAGCACGTAGGGC		binding result [3]: binds
mPFKL IVS-1 (dsDNA) DNA 1: CCGGGTAGCTGGCGTACGTGCTGCAG DNA 2: CTGCAGCACGTACGCCAGCTACCCGG	binds	
hEPO 5'-FS (dsDNA) DNA 1: GGGGCTGCTGCAGACGTGCGTGTG DNA 2: CACACGCACGTCTGCAGCAGCCCC	binds	
hPGK1 5'-FS (dsDNA) DNA 1: GTGAGACGTGCGGCTTCCGTTTG DNA 2: CAAACGGAAGCCGCACGTCTCAC	binds	
hPGK1 5'-UT (dsDNA) DNA 1: CTGCCGACGTGCGCTCCGGAG DNA 2: CTCCGGAGCGCACGTCGGCAG	binds	
mLDHA 5'-FS (dsDNA) DNA 1: GTGGGAGCCCAGCGGACGTGCGGGAA DNA 2: TTCCCGCACGTCCGCTGGGCTCCCAC	binds	
hENO1 5'-FS (dsDNA) DNA 1: GGCCACGTGCGCCGCCTGCGCCTGCG DNA 2: CGCAGGCGCAGGCGGCGCACGTGGCC		binding result [5]: binds
hALDA IVS-4 (dsDNA) DNA 1: CTTCACGTGCGGGGACCAGGGACCGT DNA 2: ACGGTCCCTGGTCCCCGCACGTGAAG	binds	
